Source: publication PMC11480844

B1: H2-Kb / E4 (parent)
chain 1: AQSVTQPDARVTVSEGASLQLRCKYSYSGTPYLFWYVQYPRQGLQLLLKYYSGDPVVQGVNGFEAEFIKSNSSFHLRKASVHWSDSAVYFCAVSAGQGGSAKLIFGEGTKLTVSS
chain 2: GGIITQTPKFLIGQEGQKLTLKCQQNFNHDTMYWYRQDSGKGLRLIYYSITENDLQKGDLSEGYDASREKKSSFSLTVTSAQKNEMAVFLCASSIWGDSYEQYFGPGTRLTVL
chain 3: not shown
chain 4: IQKTPQIQVYSRHPPENGKPNILNCYVTQFHPPHIEIQMLKNGKKIPKVEMSDMSFSKDWSFYILAHTEFTPTETDTYACRVKHDSMAEPKTVYWDRDM
chain 5: SIINFEKL
B2: H2-Kb / B7 (parent)
chain 1: GQQVQQSPTSLVLQEGENAELQCNFSTSLNSMQWFYQRPGGSLVSVFYNPSGTKQSGRLTSTTVIKERRSSLHISSSQITDSGTYLCAMERDMGYKLTFGTGTSLLVDP
chain 2: EAAVTQSPRNKVAVTGGKVTLSCNQTNNHNNMYWYRQDTGHGLRLIHYSYGAGSTEKGDIPDGYKASRPSQENFSLILELATPSQTSVYFCASGDPGDQDTQYFGPGTRLLVL
chain 3: not shown
chain 4: B1 chain 4
chain 5: SIINFEKL

Variants of: B1
Assay: % of reporter cells activated (NFAT-GFP), raw
Details: with E4
Note: test concentration or dose not given here.

Ratio to parent, by site and new letter:
chain 5 F5: A 1.1, D 1.32, L 0.698, K 0.825, M 0.629, E 0.429, N 0.635, H 0.825, I 0.746, C 1.63, G 0.46
chain 5 E6: R 0.81, I 0.873, N 0.619, Y 1.08, G 0.746, V 1.05, D 1.05, Q 0.778, A 0.635, K 0.873, W 0.635, P 0.46, F 0.698, H 1.21, C 0.651, T 0.841, M 0.54, S 0.952, L 0.381

Variants of: B2
Assay: % of reporter cells activated (NFAT-GFP), raw
Details: with B7; scale: % of reporter cells activated

Ratio to parent of substitutions, site by site:
chain 5 S1: F 0.831, Q 2.08, T 1.62, M 1.42, V 1.8, G 1.57, I 0.969, E 1.29, N 0.862, R 1, H 1.45, W 1.77, L 1.03, A 1.63, D 1.55, P 1.74, K 1.4, C 1.8, Y 1.37
chain 5 F5: S 0.831, Y 1.2, E 1.49, L 1.46, T 1.05, Q 1.25, G 1.03, D 1.55, K 1.74, H 1.34, M 1.68, V 0.615, R 0.923, C 1.97, N 1.31, P 1.74, A 1.62, I 0.938, W 1.55
chain 5 K7: D 1.02, C 1.05, G 0.738, T 1.02, H 1.66, Y 1.18, R 0.358, E 1.14, P 1.48, L 1.32, F 0.846, W 0.769, N 0.954, S 1.18, I 1.25, A 1.17, V 1.17, M 0.908, Q 0.815
chain 5 E6: Y 0.969, Q 0.754, D 1.43, C 1.46, K 1.32, R 1.46, G 1.45, W 1.09, L 1, M 0.985, N 1.2, P 1.25, V 1.02, A 1.17, F 1.52, S 1.38, I 1.14, H 1.65, T 1.63
chain 5 I3: M 1.29, Y 1.2, R 0.862, T 1.48, N 1.62, V 1.17, W 1.48, H 1.68, L 1.4, E 1.32, G 1.86, K 1.75, P 1.45, C 1.58, D 1.11, Q 1.65, A 1.68, F 1.02, S 0.646
chain 5 L8: Y 0.769, T 0.646, N 1, E 0.326, C 1.4, D 0.615, G 1.42, S 0.6, R 1.69, I 0.831, H 1.23, P 1.11, W 0.585, F 0.677, Q 0.938, K 0.785, V 0.585, M 0.892, A 0.862
chain 5 I2: T 1.85, R 0.846, P 1.72, K 1.51, W 1.46, V 1.43, D 1.45, L 1.62, Q 1.25, E 1.35, H 1.83, M 1.65, Y 1.48, C 1.11, G 1.85, S 1.45, N 2.11, A 1.58, F 1.05
chain 5 N4: K 1.45, P 0.877, D 1.69, G 1.15
